For 167 variants, self-cleavage results are on record in the RNAGym collection of RNA variant scans (doi:10.7554/elife.80360).

The chains are these.
B1: Twister Ribozyme (parent)
chain: AACACUGCCAAUGCCGGUCCCAAGCCCGGAUAAAAGUGGAGGGGGCGG

Variants of B1 are the subject of this series. Briefly: self-cleavage, relative activity (ratio to wild type); higher = more cleavage; co-transcriptional.
On to G39U G45C, for which the self-cleavage came to 0.183.

C15U G28C: the self-cleavage amounted to 0.988.

With A2U C27A, the self-cleavage was 0.124.

On to C21G A40C, for which the self-cleavage is 0.0546.

For A23C G38A, the self-cleavage was determined as 0.131.

For the variant C26A G36U, the self-cleavage came out at 0.091.

Take C25U A33G: the self-cleavage is 0.853.

On to A10C G45C, for which the self-cleavage came to 0.661.

As to G17U A32G, the self-cleavage was 0.345.

In the case of C19U G24A, the self-cleavage is 0.0904.

Regarding A34U G44U, the self-cleavage came out at 0.771.

Consider G36A G47A, for which the self-cleavage stood at 0.557.

Turning to G45C G47U, the self-cleavage came to 0.177.

In the case of C25G A32G, the self-cleavage was 0.216.

Take G29A C46A: the self-cleavage came out at 0.922.

For C3G G39A, the self-cleavage was 0.0984.

Regarding C20U G38A, the self-cleavage is 0.802.

For A4C G44C, the self-cleavage was found to be 0.0939.

With C14G U31C, the self-cleavage stood at 0.142.

For the variant C14A C21A, the self-cleavage is 0.128.

On to A2G G42A, for which the self-cleavage was 0.148.

U12G G39U: the self-cleavage was determined as 0.247.

Consider G7U G39U, for which the self-cleavage is 0.0651.

U31C A35G: the self-cleavage worked out at 0.682.

As to C26U U37C, the self-cleavage was 0.116.

With U31G A33U, the self-cleavage came to 0.876.

Consider C8A G29U, for which the self-cleavage was 0.295.

A2G G13A: the self-cleavage came out at 0.131.

In the case of A2G G13C, the self-cleavage turned out to be 0.0608.

As to A11G A34C, the self-cleavage was 0.353.

Regarding U12G G13C, the self-cleavage came out at 1.05.

Consider A1C G36U, for which the self-cleavage amounted to 0.173.

A34G G43C: the self-cleavage is 0.162.

Turning to A2C C26G, the self-cleavage was determined as 0.0867.

Take A10U A33U: the self-cleavage amounted to 1.07.

Consider G13C G41U, for which the self-cleavage was found to be 0.0855.

On to C19U C27G, for which the self-cleavage came out at 0.0975.

For U18C G24C, the self-cleavage turned out to be 0.0613.

For U12C C14U, the self-cleavage came to 1.06.

Regarding G38U G43U, the self-cleavage worked out at 0.156.

As for G38U G43A, the self-cleavage was determined as 0.154.

As to G7U A32C, the self-cleavage was determined as 0.0917.

As to C9G G24A, the self-cleavage is 0.0902.

With C5A C15U, the self-cleavage is 0.398.

Consider A2C U12C, for which the self-cleavage came out at 0.094.

In the case of A40G G41A, the self-cleavage was determined as 0.141.

For the variant G42A G43A, the self-cleavage amounted to 0.131.

C8G U12G: the self-cleavage came out at 0.676.

On to A22G A23C, for which the self-cleavage was 0.115.

On to C19A G38A, for which the self-cleavage came to 0.132.

As for A22C G48A, the self-cleavage was 1.01.

For the variant U31A G44C, the self-cleavage was determined as 0.711.

In the case of C14A G42U, the self-cleavage was determined as 0.368.

With C9G U12A, the self-cleavage turned out to be 0.968.

Turning to A1U G42U, the self-cleavage turned out to be 0.0745.

As to U12A A32G, the self-cleavage came out at 1.12.

Consider G17C G48U, for which the self-cleavage is 0.163.

Turning to C21U C27U, the self-cleavage was determined as 0.104.

Take C3A G7C: the self-cleavage amounted to 0.0682.

As for A40U G44C, the self-cleavage was found to be 0.178.

Turning to G29U U37C, the self-cleavage worked out at 0.444.

As for A23G, the self-cleavage is 0.634.

In the case of G28C G41A, the self-cleavage amounted to 0.408.

On to G28A A30U, for which the self-cleavage was determined as 0.844.

Consider C3U G29A, for which the self-cleavage came to 0.32.

Consider U31C G38C, for which the self-cleavage turned out to be 0.842.

As for A2C G41C, the self-cleavage was determined as 0.0702.

Consider C3G G38C, for which the self-cleavage stood at 0.449.

As for G28C G44A, the self-cleavage was 0.782.

Turning to A4C U37A, the self-cleavage was found to be 0.766.

With C19A A33U, the self-cleavage worked out at 0.148.

For the variant C9A C14G, the self-cleavage was 0.0661.

With A2U U6A, the self-cleavage was 0.185.

As for G17C U37G, the self-cleavage turned out to be 0.0835.

On to G7C G47U, for which the self-cleavage was 0.0642.

Take U6G A22C: the self-cleavage turned out to be 0.485.

Consider G29A A40U, for which the self-cleavage turned out to be 0.204.

Consider G29A A40C, for which the self-cleavage stood at 0.176.

U31C C46G: the self-cleavage came to 0.923.

On to C14U G24A, for which the self-cleavage worked out at 0.173.

As to C5A G36C, the self-cleavage came out at 0.519.

With G13U A32G, the self-cleavage turned out to be 0.354.

In the case of G13A G47A, the self-cleavage was determined as 0.457.

Consider G41A G45C, for which the self-cleavage came to 0.151.

For the variant C5G C25G, the self-cleavage was found to be 0.0808.

In the case of G29C G42A, the self-cleavage was found to be 0.11.

On to C9U C27U, for which the self-cleavage came out at 0.37.

Regarding A4U C9G, the self-cleavage stood at 0.0806.

For the variant A4G A40G, the self-cleavage stood at 0.17.

For the variant G7C A22G, the self-cleavage is 0.0331.

For A1G C21U, the self-cleavage was 0.146.

As for A11C A22U, the self-cleavage is 0.58.

In the case of C20A A33C, the self-cleavage came out at 0.0903.

For G7C, the self-cleavage was 0.0658.

For the variant A1G U12C, the self-cleavage turned out to be 0.45.

In the case of C26G C27G, the self-cleavage was 0.106.

Turning to C25U A34G, the self-cleavage was 0.487.

With C8A U12C, the self-cleavage came to 0.504.

Consider A10U A35C, for which the self-cleavage is 1.16.

As to G16U A33C, the self-cleavage was found to be 0.66.

As for C5U A32U, the self-cleavage is 0.812.

Consider A11G U18A, for which the self-cleavage came to 0.61.

Consider A11G G16A, for which the self-cleavage came out at 0.627.

C8A C15A: the self-cleavage is 0.134.

On to C14G C21A, for which the self-cleavage came out at 0.0482.

On to G24A U31G, for which the self-cleavage was found to be 0.105.

With G16A C27U, the self-cleavage turned out to be 1.17.

Regarding G16C U18G, the self-cleavage came out at 0.116.

Turning to C25G A35C, the self-cleavage was found to be 0.182.

Turning to C3U A30U, the self-cleavage came out at 0.397.

Take G24A G42U: the self-cleavage turned out to be 0.091.

As to C27A A40U, the self-cleavage stood at 0.142.

C9G A34C: the self-cleavage stood at 0.134.

Turning to G16C G17A, the self-cleavage amounted to 0.124.

With G38A G43C, the self-cleavage is 0.148.

On to A22U U31G, for which the self-cleavage stood at 0.833.

Turning to U6C G38A, the self-cleavage is 0.423.

A34C G39A: the self-cleavage amounted to 0.155.

Regarding A34C G39C, the self-cleavage came out at 0.0839.

Regarding A2G, the self-cleavage is 0.411.

A2C: the self-cleavage was found to be 0.0941.

Take A23C A32G: the self-cleavage stood at 0.187.

For G28U C46G, the self-cleavage amounted to 0.765.

With C15U U18C, the self-cleavage was 0.396.

G13A G44C: the self-cleavage turned out to be 0.746.

Regarding A10C U31A, the self-cleavage is 0.776.

In the case of A23C G28A, the self-cleavage amounted to 0.225.

In the case of C8A C20U, the self-cleavage is 0.0847.

As for A11C G41A, the self-cleavage stood at 0.336.

U6C G42A: the self-cleavage worked out at 0.0608.

On to G7A G42A, for which the self-cleavage is 0.176.

As to G28A G45C, the self-cleavage is 0.185.

On to G28A G45A, for which the self-cleavage is 0.653.

As for C19U G44A, the self-cleavage was 1.03.

For A22C A40C, the self-cleavage was determined as 0.102.

With A22C A35G, the self-cleavage was 1.02.

With C3A A30C, the self-cleavage was 0.225.

Take C19U G39A: the self-cleavage is 0.28.

For U6G A23C, the self-cleavage was found to be 0.0334.

As for G24U G29C, the self-cleavage is 0.0648.

C5A C25A: the self-cleavage was 0.068.

G29C G47A: the self-cleavage was 0.397.

For the variant A33U G48U, the self-cleavage came out at 0.931.

In the case of A23C C46U, the self-cleavage turned out to be 0.486.

On to G16A G17A, for which the self-cleavage was 0.281.

Turning to C19G C21U, the self-cleavage is 0.101.

Regarding A23C G41A, the self-cleavage was determined as 0.138.

On to C8U G13C, for which the self-cleavage came to 0.121.

With A23G A40U, the self-cleavage came to 0.125.

Consider G29C U37G, for which the self-cleavage is 0.4.

With C14U A34G, the self-cleavage was found to be 0.885.

As to G28C G47C, the self-cleavage is 0.254.

C26U A30C: the self-cleavage is 0.0974.

As to A2C G17A, the self-cleavage was 0.063.

With C21G G45A, the self-cleavage stood at 0.114.

C21G G45U: the self-cleavage stood at 0.0493.

With G29U A34C, the self-cleavage was 0.185.

As to C25A A34C, the self-cleavage came to 0.0515.

C15A G39C: the self-cleavage turned out to be 0.124.

With G17A G47A, the self-cleavage was 0.297.

For G29A G44C, the self-cleavage came to 0.803.

With A30C G43C, the self-cleavage was 0.103.

With U6A G47U, the self-cleavage was determined as 0.441.

Turning to G28C G48A, the self-cleavage stood at 0.405.

Turning to C14G A35G, the self-cleavage came to 0.138.

For C5A A30C, the self-cleavage turned out to be 0.348.

As for G36C G42A, the self-cleavage stood at 0.134.
